Assay results reported in patent US20140274782A1, “AFFINITY REAGENTS AND METHODS FOR DETECTION, PURIFICATION, AND PROTEOMIC ANALYSIS OF METHYLATED PROTEINS” (The Board of Trustees of the Leland Stanford Junior …, priority 2013, published 2014).

B1: LANCL2 (protein, UniProt Q9NS86 2-450, looked up)
LanC-like protein 2: GETMSKRLKLHLGGEAEMEERAFVNPFPDYEAAAGALLASGAAEETGCVRPPATTDEPGLPFHQDGKIIHNFIRRIQTKIKDLLQQMEEGLKTADPHDCSAYTGWTGIALLYLQLYRVTCDQTYLLRSLDYVKRTLRNLNGRRVTFLCGDAGPLAVGAVIYHKLRSDCESQECVTKLLQLQRSVVCQESDLPDELLYGRAGYLYALLYLNTEIGPGTVCESAIKEVVNAIIESGKTLSREERKTERCPLLYQWHRKQYVGAAHGMAGIYYMLMQPAAKVDQETLTEMVKPSIDYVRHKKFRSGNYPSSLSNETDRLVHWCHGAPGVIHMLMQAYKVFKEEKYLKEAMECSDVIWQRGLLRKGYGICHGTAGNGYSFLSLYRLTQDKKYLYRACKFAEWCLDYGAHGCRIPDRPYSLFEGMAGAIHFLSDVLGPETSRFPAFELDSSKRD
B2: CSTF3 (protein, UniProt Q12996 2-717, looked up)
Cleavage stimulation factor …: SGDGATEQAAEYVPEKVKKAEKKLEENPYDLDAWSILIREAQNQPIDKARKTYERLVAQFPSSGRFWKLYIEAEIKAKNYDKVEKLFQRCLMKVLHIDLWKCYLSYVRETKGKLPSYKEKMAQAYDFALDKIGMEIMSYQIWVDYINFLKGVEAVGSYAENQRITAVRRVYQRGCVNPMINIEQLWRDYNKYEEGINIHLAKKMIEDRSRDYMNARRVAKEYETVMKGLDRNAPSVPPQNTPQEAQQVDMWKKYIQWEKSNPLRTEDQTLITKRVMFAYEQCLLVLGHHPDIWYEAAQYLEQSSKLLAEKGDMNNAKLFSDEAANIYERAISTLLKKNMLLYFAYADYEESRMKYEKVHSIYNRLLAIEDIDPTLVYIQYMKFARRAEGIKSGRMIFKKAREDTRTRHHVYVTAALMEYYCSKDKSVAFKIFELGLKKYGDIPEYVLAYIDYLSHLNEDNNTRVLFERVLTSGSLPPEKSGEIWARFLAFESNIGDLASILKVEKRRFTAFKEEYEGKETALLVDRYKFMDLYPCSASELKALGYKDVSRAKLAAIIPDPVVAPSIVPVLKDEVDRKPEYPKPDTQQMIPFQPRHLAPPGLHPVPGGVFPVPPAAVVLMKLLPPPICFQGPFVQVDELMEIFRRCKIPNTVEEAVRIITGGAPELAVEGNGPVESNAVLTKAVKRPNEDSDEDEEKGAVVPPVHDIYRARQQKRIR
B3: EEF1B2 (protein, UniProt P24534 2-225, looked up)
Elongation factor 1-beta: GFGDLKSPAGLQVLNDYLADKSYIEGYVPSQADVAVFEAVSSPPPADLCHALRWYNHIKSYEKEKASLPGVKKALGKYGPADVEDTTGSGATDSKDDDDIDLFGSDDEEESEEAKRLREERLAQYESKKAKKPALVAKSSILLDVKPWDDETDMAKLEECVRSIQADGLVWGSSKLVPVGYGIKKLQIQCVVEDDKVGTDMLEEQITAFEDYVQSMDVAAFNKI
B4: ZRANB2 (protein, UniProt O95218 1-330, looked up)
Zinc finger Ran-binding …: MSTKNFRVSDGDWICPDKKCGNVNFARRTSCNRCGREKTTEAKMMKAGGTEIGKTLAEKSRGLFSANDWQCKTCSNVNWARRSECNMCNTPKYAKLEERTGYGGGFNERENVEYIEREESDGEYDEFGRKKKKYRGKAVGPASILKEVEDKESEGEEEDEDEDLSKYKLDEDEDEDDADLSKYNLDASEEEDSNKKKSNRRSRSKSRSSHSRSSSRSSSPSSSRSRSRSRSRSSSSSQSRSRSSSRERSRSRGSKSRSSSRSHRGSSSPRKRSYSSSSSSPERNRKRSRSRSSSSGDRKKRRTRSRSPERRHRSSSGSSHSGSRSSSKKK
B5: DUSP3 (protein, UniProt P51452 1-185, looked up)
Dual specificity protein …: MSGSFELSVQDLNDLLSDGSGCYSLPSQPCNEVTPRIYVGNASVAQDIPKLQKLGITHVLNAAEGRSFMHVNTNANFYKDSGITYLGIKANDTQEFNLSAYFERAADFIDQALAQKNGRVLVHCREGYSRSPTLVIAYLMMRQKMDVKSALSIVRQNREIGPNDGFLAQLCQLNDRLAKEGKLKP

Tests used:
3×MBT domain of L3MBTL1 = assay: Triple SILAC pull-down, 3xMBT/3xMBTD355N ratio (cytoplasmic, nuclear and chromatin fractions of 293T cells); format: binding, human; conditions: SILAC ratio 3xMBT vs 3xMBTD355N pull-down, 293T cells, all values in log base 2; for 3xMBT/D355N UNC Heavy: experiment with UNC0638 in heavy SILAC media; for 3xMBT/D355N UNC Light: experiment with UNC0638 in light SILAC media;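 as to all read-outs here: proteins quantified with MaxQuant, requiring at least two unique peptides and quantification in both label directions, normalized to the mean of proteins from a digested loading control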
G9a and GLP = biological target: T1, G9a and GLP (Homo sapiens, UniProt Q96KQ7+Q9H9B1); assay: Triple SILAC pull-down after UNC0638 treatment of 293T cells, DMSO/UNC0638 ratio of protein captured by 3×MBT; format: cell-based; set-up: cells were treated for 24 hours with UNC0638 at 2.5 μM or DMSO vehicle control; endogenous in cells; host or cells: HEK 293T; conditions: all values in log base 2; for Relative to UNC0638 UNC Heavy / Relative to UNC0638 UNC Light: SILAC ratio DMSO relative to UNC0638, pull-down with 3xMBT; for Relative to UNC0638 UNC Heavy: UNC0638 in heavy SILAC media; for Relative to UNC0638 UNC Light: UNC0638 in light SILAC media; for Relative to UNC0638 Average: average of UNC Light and UNC Heavy experiments;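 as to all read-outs here: mass spectrometry (Q-Exactive) SILAC quantitation, DMSO/UNC0638 ratio computed after subtracting 3×MBTD355N mutant pull-down background, only proteins with at least twofold 3×MBT over mutant signal considered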
T1 sequence (Q96KQ7 2-1210 limits assumed): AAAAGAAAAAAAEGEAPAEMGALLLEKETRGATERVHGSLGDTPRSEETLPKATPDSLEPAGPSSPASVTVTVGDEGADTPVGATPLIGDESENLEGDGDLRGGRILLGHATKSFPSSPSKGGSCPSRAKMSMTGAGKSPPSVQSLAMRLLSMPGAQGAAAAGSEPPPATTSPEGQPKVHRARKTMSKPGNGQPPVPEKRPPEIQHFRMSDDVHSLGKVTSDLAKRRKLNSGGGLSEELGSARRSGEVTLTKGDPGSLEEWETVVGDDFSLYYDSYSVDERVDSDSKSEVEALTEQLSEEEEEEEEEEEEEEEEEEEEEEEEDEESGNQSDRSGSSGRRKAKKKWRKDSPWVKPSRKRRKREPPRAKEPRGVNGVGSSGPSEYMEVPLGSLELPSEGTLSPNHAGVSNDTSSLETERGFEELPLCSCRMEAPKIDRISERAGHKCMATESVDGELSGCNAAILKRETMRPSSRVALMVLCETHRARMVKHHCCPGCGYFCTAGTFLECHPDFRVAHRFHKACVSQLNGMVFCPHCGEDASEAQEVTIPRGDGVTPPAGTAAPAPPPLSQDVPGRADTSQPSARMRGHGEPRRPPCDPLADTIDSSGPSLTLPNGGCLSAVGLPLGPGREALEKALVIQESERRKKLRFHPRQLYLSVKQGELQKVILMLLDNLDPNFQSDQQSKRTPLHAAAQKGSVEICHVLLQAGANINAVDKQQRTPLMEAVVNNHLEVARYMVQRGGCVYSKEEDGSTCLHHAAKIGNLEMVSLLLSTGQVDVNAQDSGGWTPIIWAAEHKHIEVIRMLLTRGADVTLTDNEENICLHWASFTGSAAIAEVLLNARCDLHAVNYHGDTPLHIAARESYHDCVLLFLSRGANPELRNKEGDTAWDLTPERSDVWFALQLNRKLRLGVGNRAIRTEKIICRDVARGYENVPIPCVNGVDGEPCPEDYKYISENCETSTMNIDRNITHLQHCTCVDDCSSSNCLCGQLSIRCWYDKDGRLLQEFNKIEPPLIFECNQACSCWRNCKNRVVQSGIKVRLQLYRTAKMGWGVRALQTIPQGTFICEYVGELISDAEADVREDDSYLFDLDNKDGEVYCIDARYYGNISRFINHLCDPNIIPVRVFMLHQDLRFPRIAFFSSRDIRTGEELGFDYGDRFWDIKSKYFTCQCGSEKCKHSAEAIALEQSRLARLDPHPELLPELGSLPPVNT
T1 sequence (Q9H9B1 2-1298 limits assumed): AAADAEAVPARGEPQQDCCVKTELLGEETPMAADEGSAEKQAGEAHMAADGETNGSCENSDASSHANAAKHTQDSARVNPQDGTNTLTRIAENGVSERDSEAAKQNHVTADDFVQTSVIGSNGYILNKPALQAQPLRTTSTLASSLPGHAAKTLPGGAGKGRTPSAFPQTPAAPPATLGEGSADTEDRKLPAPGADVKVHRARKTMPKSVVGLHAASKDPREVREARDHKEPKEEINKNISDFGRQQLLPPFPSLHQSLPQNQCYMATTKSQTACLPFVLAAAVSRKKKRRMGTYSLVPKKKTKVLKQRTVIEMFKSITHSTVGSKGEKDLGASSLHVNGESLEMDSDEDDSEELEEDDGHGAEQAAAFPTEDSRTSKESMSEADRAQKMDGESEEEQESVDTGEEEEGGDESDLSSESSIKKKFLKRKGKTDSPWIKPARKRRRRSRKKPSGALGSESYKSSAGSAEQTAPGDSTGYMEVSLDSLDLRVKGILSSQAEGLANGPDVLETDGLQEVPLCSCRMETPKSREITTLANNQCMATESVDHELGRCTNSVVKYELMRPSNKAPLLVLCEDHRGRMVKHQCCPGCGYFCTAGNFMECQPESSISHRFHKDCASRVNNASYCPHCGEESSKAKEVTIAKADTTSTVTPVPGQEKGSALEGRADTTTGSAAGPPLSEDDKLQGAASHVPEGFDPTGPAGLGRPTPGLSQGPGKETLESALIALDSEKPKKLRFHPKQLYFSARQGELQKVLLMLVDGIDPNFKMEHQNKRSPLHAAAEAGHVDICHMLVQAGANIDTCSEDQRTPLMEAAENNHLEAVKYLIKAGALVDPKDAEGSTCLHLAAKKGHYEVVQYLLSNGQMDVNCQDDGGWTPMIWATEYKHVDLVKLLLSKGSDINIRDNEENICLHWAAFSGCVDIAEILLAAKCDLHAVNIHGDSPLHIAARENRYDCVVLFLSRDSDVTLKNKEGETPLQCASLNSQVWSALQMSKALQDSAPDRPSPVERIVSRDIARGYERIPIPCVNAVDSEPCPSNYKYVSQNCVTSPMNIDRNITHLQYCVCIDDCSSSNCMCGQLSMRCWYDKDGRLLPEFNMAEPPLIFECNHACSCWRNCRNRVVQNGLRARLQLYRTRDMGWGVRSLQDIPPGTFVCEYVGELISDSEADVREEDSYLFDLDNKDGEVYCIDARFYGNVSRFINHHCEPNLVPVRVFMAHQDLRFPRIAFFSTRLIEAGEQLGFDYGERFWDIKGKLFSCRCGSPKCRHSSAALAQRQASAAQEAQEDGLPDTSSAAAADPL
Protocol: For UNC0638 treatments cells were treated for 24 hours with UNC0638 at 2.5 μM or DMSO vehicle control. One experiment treated cells in light media with UNC0638, the other treated cells in heavy media. Both experiments included cells in medium media treated with DMSO for negative control pull-down with 3×MBTD355N.
UNC0638 treatment experiments used a Q-Exactive mass spectrometer (ThermoFisher Scientific). A 25 cm HPLC column with 3 μm Reliasil (Orochem) was used to separate peptides over a 4 hour gradient from 0 to 75% acetonitrile. Ions were generated using a custom nanospray source flowing at 250 nL/minute. Mass spectrometry settings were 70,000 MS1 resolution, data dependent selection of up to 20 precursor ions per cycle, dynamic exclusion of 30 seconds and isolation window of 2 m/z.
For UNC0638 experiments the treated vs. untreated ratio was determined by subtracting the value from 3×MBTD355N prior to dividing values from the light and heavy channels. Only proteins showing a two-fold signal to background ratio (3×MBT/3×MBTD355N) were evaluated as potential G9a/GLP substrates.

Row | Molecule | 3xMBT/D355N UNC Heavy (3×MBT domain of L3MBTL1) [log base 2] | 3xMBT/D355N UNC Light (3×MBT domain of L3MBTL1) [log base 2] | Relative to UNC0638 UNC Heavy (G9a and GLP) [log base 2] | Relative to UNC0638 UNC Light (G9a and GLP) [log base 2] | Relative to UNC0638 Average (G9a and GLP) [log base 2]
1 | B1 | 1.44 | 1.81 | −0.05 | −0.26 | −0.16
2 | B2 | 1.58 | 1.48 | −0.78 | 0.47 | −0.15
3 | B3 | −0.81 | −0.32 | 0.01 | −0.64 | −0.31
4 | B4 | 0.71 | 2.59 | −0.09 | −0.02 | −0.06
5 | B5 | 1.97 | 1.19 | 0.47 | −1.35 | −0.44
